This is an account of results in article PMC5736220.

Test [1] deals with protocadherin-15 EC1+2 I22A, His-tagged (mouse) (UniProt Q99PJ1). Kind of test: thermal scanning (thermal stability shift assay with SYPRO orange); pcdh15 fixed at 0.1 mg/mL (~4 μM), cdh23 0.1 to 0.5 mg/mL (~4 to 20 μM; cdh23:pcdh15 1:1 to 5:1); SEC buffer (20 mM Tris-HCl pH 7.5, 150 mM KCl, 50 mM NaCl, 2 mM CaCl2); 10 to 95°C in 0.2°C steps, 5 s equilibration; read-out: shift of the Tm of pcdh15 (ΔTm).

Another test has as its target pcdh15 (Mus musculus) (UniProt Q99PJ1). As to the kind of experiment: ITC. As to conditions: cited from earlier work.

For the substance “cadherin-23 EC1+2, wild type, His-tagged (from UniProt Q99PF4 24-228) (domain or fragment)”, in test [1], the ΔTm of pcdh15 at cdh23:pcdh15 1:1 stood at 0.5 °C, the ΔTm of pcdh15 at cdh23:pcdh15 2:1 worked out at 0.7 °C, the ΔTm of pcdh15 at cdh23:pcdh15 3:1 worked out at 1 °C and the ΔTm of pcdh15 at cdh23:pcdh15 4:1 turned out to be 1.1 °C. In addition, in test [1], the ΔTm of pcdh15 at cdh23:pcdh15 5:1 worked out at 1 °C.

On to cdh23 (from UniProt Q99PF4), for which the Kd with pcdh15 (Mus musculus) was 2.9 µM.

Usually Kd stands for the constant that tells how readily two partners part at equilibrium.
